Laboratory results: patent US20220177587A1, “METHODS AND USES OF VARIANT CD80 FUSION PROTEINS AND RELATED CONSTRUCTS” (Alpine Immune Sciences, Inc., priority 2018, published 2022)
pEC50: −log10 of the molar value.

Assays:
[1] = biological target: huPD-L1 (Homo sapiens, UniProt Q9NZQ7); experiment: Flow binding to CHO cells stably expressing PD-L1; design: huCTLA4 and huPD-L1, full-length mammalian surface expression constructs were generated; expressed in transfected cells; host or cells: CHO cells, lentiviral transduction, sorted to >98% purity; settings: for PD-L1 MFI at 33.3 nM: CHO cells stably expressing PD-L1; for PD-L1 Fold change to WT CD80: MFI at 33.3 nM relative to CD80 WT IgV-Fc; for Ratio of PDL1:CD28: ratio of MFI at 33.3 nM
huPD-L1, sequence (Q9NZQ7 19-290): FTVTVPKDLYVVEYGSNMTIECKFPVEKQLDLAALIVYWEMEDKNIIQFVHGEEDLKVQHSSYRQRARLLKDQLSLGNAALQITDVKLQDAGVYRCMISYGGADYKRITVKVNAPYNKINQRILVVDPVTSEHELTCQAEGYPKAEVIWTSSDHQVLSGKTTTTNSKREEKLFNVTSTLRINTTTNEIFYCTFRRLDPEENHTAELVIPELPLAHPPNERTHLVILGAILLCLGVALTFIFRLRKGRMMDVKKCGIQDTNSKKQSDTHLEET
Procedure: (§1) Binding of selected immunomodulatory fusion proteins to cognate binding partners was assessed. […] Cells were sorted in a Bio-Rad S3 Cell Sorter (Bio-Rad Corp., USA) to >98% purity. Jurkat/IL2 reporter cells, which endogenously express CD28, were used to detect binding to CD28.
(§2) For staining and analysis by flow cytometry, 100,000 cells of appropriate transfected cells were plated in 96-well round bottom plates. Cells were spun down and resuspended in staining buffer (phosphate buffered saline (PBS), 1% bovine serum albumin (BSA), and 0.1% sodium azide) for 20 minutes to block non-specific binding. […] Primary staining was performed on ice for 45 minutes, before washing cells in staining buffer twice. Phycoerythrin (PE)-conjugated anti-human Fc (Jackson ImmunoResearch, USA) was diluted 1:150, added to cells and incubated another 30 minutes on ice. Cells were then washed twice with 150 μL/well stain buffer, fixed in 2% formaldehyde/PBS, and analyzed on Intellicyt flow cytometer (Intellicyt Corp., USA). PE Mean Fluorescence Intensity (MFI) was calculated for each cell type with FlowJo Version 10 software (FlowJo LLC, USA).
(§3) Binding assays were carried out to assess the specificity and affinity of multivalent proteins to cell-expressed CTLA-4, CD28, and PD-L1 counter structures.
(§4) The EC50 for binding also was determined.

[2] = biological target: huCTLA4 (Homo sapiens, UniProt P16410); experiment: Flow binding to CHO cells stably expressing CTLA4; design: huCTLA4 and huPD-L1, full-length mammalian surface expression constructs were generated; expressed in transfected cells; host or cells: CHO cells, lentiviral transduction, sorted to >98% purity; settings: for CTLA4 MFI at 33.3 nM: CHO cells stably expressing CTLA4; for CTLA4 Fold change to WT CD80: MFI at 33.3 nM relative to CD80 WT IgV-Fc
huCTLA4, sequence (P16410 36-223): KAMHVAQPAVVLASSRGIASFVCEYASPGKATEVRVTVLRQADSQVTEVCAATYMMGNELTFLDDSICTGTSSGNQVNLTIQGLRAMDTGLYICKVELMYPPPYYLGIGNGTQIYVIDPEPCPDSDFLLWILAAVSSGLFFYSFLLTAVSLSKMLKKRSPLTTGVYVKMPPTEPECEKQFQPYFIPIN
Procedure: as §1, §2, §3, §4

[3] = biological target: T1, CD28 (Homo sapiens, UniProt P10747); experiment: Jurkat/IL2 + CHO/OKT3 +/- PD-L1 reporter assay: PD-L1-dependent CD28 costimulation; type: cell-based; design: host or cells: Jurkat cells expressing an IL-2-luciferase reporter; settings: Jurkat/IL2 + CHO/OKT3/PD-L1
Procedure: Jurkat cells were then plated at 50 μL/well for a total of 100,000 cells per well.
To each well, 25 μL of test protein was added to the Jurkat cells. […] The Jurkat cells with test or control proteins were incubated for 15 minutes at room temperature. CHO-derived artificial antigen presenting cells (aAPC) displaying transduced cell surface anti-CD3 single chain Fv (OKT3) (i.e., no PD-L1), or OKT3 and PD-L1 (i.e., +PD-L1), were brought to 0.8×10^6 cells/mL, and 25 μL of cells were added to each well, bringing the final volume of each well to 100 μL. […] Jurkat cells and CHO cells were incubated for 5 hours at 37 degrees Celsius in a humidified 5% CO2 incubation chamber. Plates were then removed from the incubator and acclimated to room temperature for 15 minutes. 100 μL of a cell lysis and luciferase substrate solution (BioGlo luciferase reagent, Promega) were added to each well and the plates were incubated on an orbital shaker for 10 minutes. Luminescence was measured with a 1 second per well integration time using a BioTek Cytation luminometer, and a relative luminescence value (RLU) was determined for each test sample.

[4] = biological target: T1, CD28; experiment: Flow binding to Jurkat/IL2 reporter cells (CD28); design: host or cells: Jurkat cells expressing an IL-2-luciferase reporter; settings: for CD28 Fold change to WT CD80: MFI at 33.3 nM relative to CD80 WT IgV-Fc
Procedure: as §1, §2, §3, §4

[5] = Table E20, Jurkats (CD28), 33.3 nM
[6] = Table E23, CD80 IgV-Fc (inert) at 33.3 nM
[7] = Table E23, CD80 IgV-Fc (inert) at 33.3 nM, Jurkat (CD28)

Row | Substance | PD-L1 MFI at 33.3 nM ([1]; Table E20, 33.3 nM) | CTLA4 MFI at 33.3 nM ([2]; Table E20, 33.3 nM) | Relative Luciferase Units (RLU), CD80 Conc 5.0 nM ([3]; Table E22, CD80 Conc 5.0 nM) | PD-L1 MFI at 33.3 nM [1, 6] | CD28 MFI at 33.3 nM [4, 7] | CTLA4 MFI at 33.3 nM [2, 6] | also measured
1 | A26E/E35D/M47L/V68M/A71G | 27806 | 24587 | 1010 RLU |  |  |  | 
2 | A26E/E35D/M47L/V68M/D90G |  | 26698 |  |  |  |  | 
3 | CD80 (E88D/K89R/D90K/A91G/F92Y/K93R) ECD-Fc: variant full CD80 ECD fused to effector human IgG1 Fc (SEQ ID NO:1527) |  |  |  |  |  |  | Jurkat/CD28 MFI at 66.7 nM ([4]; 66.7 nM): 4049; pEC50 ([4]; flow binding, read-out: Jurkat/CD28 EC50): < 6.70
4 | E35D/M47L/V68M/A71G/D90G | 29377 | 26007 |  |  |  |  | CD28 MFI at 33.3 nM [4, 5]: 3072
5 | Fc Control | 77.1 | 37.9 |  | 185 | 81 | 194 | PD-L1 MFI at 33.3 nM ([1]; Table E19, 33.3 nM): 44; CTLA4 MFI at 33.3 nM ([2]; Table E19, 33.3 nM): 52; CD28 MFI at 33.3 nM [4, 5]: 15.4
6 | H18V/A26R/E35D/M47L/V68M/A71G/D90G |  |  |  | 73166 | 9620 | 23151 | 
7 | H18V/A26S/E35D/M47L/V68M/A71G/D90G |  |  |  | 73884 | 8063 | 24919 | PD-L1 Fold change to WT CD80 ([1]; Table E23): 447.8; Ratio of PDL1:CD28 ([1]; Table E23): 9.2; CTLA4 Fold change to WT CD80 ([2]; Table E23): 18.0; Fold Increase over WT CD80-IgV-Fe ([3]; Table E24, 5.0 nM): 5.2; Relative Luciferase Units (RLU), CD80 Conc 5.0 nM ([3]; Table E24, 5.0 nM): 883 RLU; CD28 Fold change to WT CD80 ([4]; Table E23): 79.0
8 | H18Y/A26E/E35D/M47L/A71G/D90G |  |  | 1015 RLU |  |  |  | 

Now from value to substance, other results behind:

Row | PD-L1 MFI at 33.3 nM ([1]; Table E20, 33.3 nM) | CTLA4 MFI at 33.3 nM ([2]; Table E20, 33.3 nM) | Relative Luciferase Units (RLU), CD80 Conc 5.0 nM ([3]; Table E22, CD80 Conc 5.0 nM) | PD-L1 MFI at 33.3 nM [1, 6] | CD28 MFI at 33.3 nM [4, 7] | CTLA4 MFI at 33.3 nM [2, 6] | Substance | also measured
9 | 14550 | 22127 | 1132 RLU |  |  |  | A26E/E35D/M47L/A71G/D90G | 
10 | 30232 | 21749 | 1117 RLU |  |  |  | A26E/E35D/M47L/V68M/A71G/D90G | PD-L1 Fold change to WT CD80 ([1]; Table E20): 693.4 fold; Ratio of PDL1:CD28 ([1]; Table E20): 13.7; CTLA4 Fold change to WT CD80 ([2]; Table E20): 16.0 fold; Fold Increase over WT CD80-IgV-Fe ([3]; Table E22, 5.0 nM): 2.86 fold; CD28 MFI at 33.3 nM [4, 5]: 2211; CD28 Fold change to WT CD80 ([4]; Table E20): 50.4 fold
11 | 26510 | 23286 | 912 RLU |  |  |  | A26E/E35D/V68M/A71G/D90G | PD-L1 Fold change to WT CD80 ([1]; Table E20): 608.0 fold; Ratio of PDL1:CD28 ([1]; Table E20): 12.6; CTLA4 Fold change to WT CD80 ([2]; Table E20): 17.1 fold; Fold Increase over WT CD80-IgV-Fe ([3]; Table E22, 5.0 nM): 2.34 fold; CD28 MFI at 33.3 nM [4, 5]: 2102; CD28 Fold change to WT CD80 ([4]; Table E20): 47.9 fold
12 | 28139 | 21807 |  |  |  |  | A26E/M47L/V68M/A71G/D90G | 
13 |  |  |  | 161 | 57.8 |  | CD80 WT ECD-Fc | 
14 |  |  |  | 36284 | 4913 | 21360 | H18A/A26N/E35D/M47L/V68M/A71G/D90G | PD-L1 Fold change to WT CD80 ([1]; Table E23): 219.9; Ratio of PDL1:CD28 ([1]; Table E23): 7.4; CTLA4 Fold change to WT CD80 ([2]; Table E23): 15.4; Fold Increase over WT CD80-IgV-Fe ([3]; Table E24, 5.0 nM): 6.2; Relative Luciferase Units (RLU), CD80 Conc 5.0 nM ([3]; Table E24, 5.0 nM): 1054 RLU; CD28 Fold change to WT CD80 ([4]; Table E23): 48.2
15 |  |  |  | 33436 | 4731 | 23763 | H18A/A26P/E35D/M47L/V68M/A71G/D90G | PD-L1 Fold change to WT CD80 ([1]; Table E23): 202.6; Ratio of PDL1:CD28 ([1]; Table E23): 7.1; CTLA4 Fold change to WT CD80 ([2]; Table E23): 17.2; Fold Increase over WT CD80-IgV-Fe ([3]; Table E24, 5.0 nM): 5.0; Relative Luciferase Units (RLU), CD80 Conc 5.0 nM ([3]; Table E24, 5.0 nM): 857 RLU; CD28 Fold change to WT CD80 ([4]; Table E23): 46.4
